Assay results from patent US20150056209A1, “PEPTIDE MIMOTOPES TO OXIDATION SPECIFIC EPITOPES” (The Regents of the University of California, priority 2012, published 2015).
Bridges are numbered along the chain shown (N, C = ends). Where no end group is shown, it is not given here.

B1: phage clone Cb589 (peptide, not shown: large carriers)
chain: ACNNYNMPLCGGGS
modifications: disulfide 2-10; also: C-terminus fused to phage pIII
B2: phage clones Ca1, Ca7 (peptide, not shown: large carriers)
chain: ACNNWNMPLCGGGS
modifications: disulfide 2-10; also: C-terminus fused to phage pIII
B3: phage clone Cb10 (peptide, not shown: large carriers)
chain: ACNNSNMPLCGGGS
modifications: disulfide 2-10; also: C-terminus fused to phage pIII
B4: phage clone A40 (peptide, not shown: large carriers)
chain: NSWTNASLSTFHGGGS
B5: phage clone M30 (peptide, not shown: large carriers)
chain: EVMNNWTLASIMGGGS
B6: phage clones M3, M5 (peptide, not shown: large carriers)
chain: HRLTNSEQAALPGGGS
B7: phage clone M8 (peptide, not shown: large carriers)
chain: TAVTNSMMERLWGGGS
B8: phage clone Cb2 (peptide, not shown: large carriers)
chain: ACDWAPHFTCGGGS
modifications: disulfide 2-10; also: C-terminus fused to phage pIII
B9: phage clone A34 (peptide, not shown: large carriers)
chain: NSRTNNSQWTFQGGGS
B10: phage clone M19 (peptide, not shown: large carriers)
chain: QSYTNDDVLRISGGGS
B11: phage clone A39 (peptide, not shown: large carriers)
chain: GWGNKTPSQDVHGGGS
B12: phage clone Ca4 (peptide, not shown: large carriers)
chain: ACKNSXQPLCGGGS
modifications: disulfide 2-10; not fully specified; X: residue not identified in the source
B13: phage clones Ca59, Cb1 (peptide, not shown: large carriers)
chain: ACNNRNMPLCGGGS
modifications: disulfide 2-10; also: C-terminus fused to phage pIII
B14: phage clone A33 (peptide, not shown: large carriers)
chain: HQLSNKDEQTPQGGGS
B15: phage clone M31 (peptide, not shown: large carriers)
chain: HSLTNTQMTQLSGGGS
B16: phage clone Ca2 (peptide, not shown: large carriers)
chain: ACNNSKMRLCGGGS
modifications: disulfide 2-10; also: C-terminus fused to phage pIII
B17: phage clones M10, G8 (peptide, not shown: large carriers)
chain: HSLSNIQMATLAGGGS
B18: phage clone M2 (peptide, not shown: large carriers)
chain: ESWTNSWAMYFGGGGS
B19: phage clone G4 (peptide, not shown: large carriers)
chain: HRISNYAMELHSGGGS
B20: phage clone A32 (peptide, not shown: large carriers)
chain: HSWSNYWGHQHAGGGS
B21: phage clone A31 (peptide, not shown: large carriers)
chain: QNMNNWTLASIMGGGS
B22: phage clone Ca6 (peptide, not shown: large carriers)
chain: ACNNSXMPLCGGGS
modifications: disulfide 2-10; not fully specified; X: residue not identified in the source
B23: phage clones M6, G10 (peptide, not shown: large carriers)
chain: HRMTNNAMDVFMGGGS
B24: phage clone Cb4 (peptide, not shown: large carriers)
chain: ACNNWKMPLCGGGS
modifications: disulfide 2-10; also: C-terminus fused to phage pIII
B25: phage clones A36, B41, M35 (peptide, not shown: large carriers)
chain: ESWTNSWAHYFGGGGS
B26: phage clones Ca9, Cb3, Ca8, Ca10 (peptide, not shown: large carriers)
chain: ACNNSHMPLCGGGS
modifications: disulfide 2-10; not fully specified
B27: phage clone M15 (peptide, not shown: large carriers)
chain: ASISNLTLSRFMGGGS
B28: phage clone M7 (peptide, not shown: large carriers)
chain: ADPFSPTNRIPLGGGS
B29: phage clone Cb9 (peptide, not shown: large carriers)
chain: ACNNQNMPLCGGGS
modifications: disulfide 2-10; also: C-terminus fused to phage pIII
B30: phage clone Ca3 (peptide, not shown: large carriers)
chain: ACQNSHMPLCGGGS
modifications: disulfide 2-10; also: C-terminus fused to phage pIII
B31: phage clone A38 (peptide, not shown: large carriers)
chain: HRMTNAMHHFMGGGGS
B32: phage clone M36 (peptide, not shown: large carriers)
chain: DYTNSVSMRYLSGGGS

Target: control isotype anti-KLH IgM Ab (C48-6; BD Bioscience-Pharmingen)
Test: phage ELISA, coated control IgM

Binder | OD (binding of phages to control IgM)
B1 | 0.1 OD
B2 | 0.1 OD
B3 | 0.2 OD
B4 | 0.04 OD
B5 | 0.03 OD
B6 | 0.03 OD
B7 | 0.04 OD
B8 | 0.2 OD
B9 | 0.11 OD
B10 | 0.03 OD
B11 | 0.05 OD
B12 | 0.1 OD
B13 | 0.1 OD
B14 | 0.05 OD
B15 | 0.03 OD
B16 | 0.2 OD

Binder | OD (binding of phages to control IgM)
B17 | 0.03 OD
B18 | 0.03 OD
B19 | 0.04 OD
B20 | 0.02 OD
B21 | 0.08 OD
B22 | 0 OD
B23 | 0.03 OD
B24 | 0.1 OD
B25 | 0.03 OD
B26 | 0.2 OD
B27 | 0.04 OD
B28 | 0.03 OD
B29 | 0.01 OD
B30 | 0.1 OD
B31 | 0.21 OD
B32 | 0.01 OD

Target: LRO4
Test: phage ELISA, coated LRO4

Binder | OD (binding of phages to LR04)
B1 | 0.8 OD
B2 | 0.8 OD
B3 | 0.6 OD
B4 | 0.89 OD
B5 | 1.04 OD
B6 | 1.56 OD
B7 | 1.57 OD
B8 | 1 OD
B9 | 0.82 OD
B10 | 1.67 OD
B11 | 1.19 OD
B12 | 0.9 OD
B13 | 0.8 OD
B14 | 0.63 OD
B15 | 1.35 OD
B16 | 0.8 OD

Binder | OD (binding of phages to LR04)
B17 | 1.16 OD
B18 | 1.17 OD
B19 | 1.45 OD
B20 | 0.98 OD
B21 | 0.85 OD
B22 | 0.7 OD
B23 | 1.56 OD
B24 | 0.6 OD
B25 | 1.16 OD
B26 | 0.9 OD
B27 | 1.34 OD
B28 | 1.37 OD
B29 | 0.7 OD
B30 | 0.5 OD
B31 | 0.64 OD
B32 | 1.47 OD

Target: LRO4
Test: competitive phage ELISA, coated LRO4; competitor MDA-LDL 50 µg/mL

Binder | B/Bo (inhibition of binding to LR04)
B1 | 0.03 B/Bo
B2 | 0.04 B/Bo
B3 | 0.02 B/Bo
B4 | 0.1 B/Bo
B5 | 0.06 B/Bo
B6 | 0.1 B/Bo
B7 | 0.2 B/Bo
B8 | 0.03 B/Bo
B9 | 0.11 B/Bo
B10 | 0.25 B/Bo
B11 | 0.19 B/Bo
B12 | 0.13 B/Bo
B13 | 0.06 B/Bo
B14 | 0.14 B/Bo
B15 | 0.4 B/Bo
B16 | 0.12 B/Bo

Binder | B/Bo (inhibition of binding to LR04)
B17 | 0.1 B/Bo
B18 | 0.2 B/Bo
B19 | 0.1 B/Bo
B20 | 0.18 B/Bo
B21 | 0.25 B/Bo
B22 | 0.04 B/Bo
B23 | 0.2 B/Bo
B24 | 0.02 B/Bo
B25 | 0.14 B/Bo
B26 | 0.04 B/Bo
B27 | 0.15 B/Bo
B28 | 0.1 B/Bo
B29 | 0.02 B/Bo
B30 | 0.04 B/Bo
B31 | 0.1 B/Bo
B32 | 0.07 B/Bo
